Laboratory results published in US20250382390A1 (Chugai, published 2025).

B1: Q-CDR-Clipped Variants (variants of Emicizumab) (bispecific antibody, human IgG4 S228P, kappa)
heavy 1: QVQLVESGGGLVQPGGSLRLSCAASGFTFSYYDIQWVRQAPGKGLEWVSSISPSGQSTYYRREVKGRFTISRDNSKNTLYLQMNSLRAEDTAVYYCARRTGREYGGGWYFDYWGQGTLVTVSSASTKGPSVFPLAPCSRSTSESTAALGCLVKDYFPEPVTVSWNSGALTSGVHTFPAVLQSSGLYSLSSVVTVPSSSLGTQTYTCNVDHKPSNTKVDKRVESKYGPPCPPCPAPEFLGGPSVFLFPPKPKDTLMISRTPEVTCVVVDVSQEDPEVQFNWYVDGVEVHNAKTKPREEQYNSTYRVVSVLTVLHQDWLNGKEYKCKVSNKGLPSSIEKTISKAKGQPREPQVYTLPPSQKEMTKNQVSLTCLVKGFYPSDIAVEWESNGQPENNYKTTPPVLDSDGSFFLYSKLTVDKSRWQEGNVFSCSVMHEALHNRYTQKSLSLSP
heavy 2: QVQLVQSGSELKKPGASVKVSCKASGYTFTDNNMDWVRQAPGQGLEWMGDINTRSGGSIYNEEFQDRVIMTVDKSTDTAYMELSSLRSEDTATYHCARRKSYGYYLDEWGEGTLVTVSSASTKGPSVFPLAPCSRSTSESTAALGCLVKDYFPEPVTVSWNSGALTSGVHTFPAVLQSSGLYSLSSVVTVPSSSLGTQTYTCNVDHKPSNTKVDKRVESKYGPPCPPCPAPEFLGGPSVFLFPPKPKDTLMISRTPEVTCVVVDVSQEDPEVQFNWYVDGVEVHNAKTKPREEQYNSTYRVVSVLTVLHQDWLNGKEYKCKVSNKGLPSSIEKTISKAKGQPREPQVYTLPPSQEEMTKNQVSLTCLVKGFYPSDIAVEWESNGQPENNYKTTPPVLDSDGSFFLYSKLTVDKSRWQEGNVFSCSVMHEALHNHYTQESLSLSP
light: DIQMTQSPSSLSASVGDRVTITCKASRNIERQLAWYQQKPGQAPELLIYQASRKESGVPDRFSGSRYGTDFTLTISSLQPEDIATYYCQQYSDPPLTFGGGTKVEIKRTVAAPSVFIFPPSDEQLKSGTASVVCLLNNFYPREAKVQWKVDNALQSGNSQESVTEQDSKDSTYSLSSTLTLSKADYEKHKVYACEVTHQGLSSPVTKSFNRGEC
modifications: Q chain: R at the 61st position from the N terminus (Kabat 60), or YYR at the 59th to 61st positions (Kabat 58 to 60), deleted and the chain cleaved at the deletion site; the N-terminal and C-terminal fragments are joined via a disulfide bond
B2: Protected Disulfide Isoforms (isoforms of Emicizumab) (bispecific antibody, human IgG4 S228P, kappa)
heavy 1: B1 heavy 1
heavy 2: B1 heavy 2
light: B1 light

Columns and labels:
[1] = biological target: activated blood coagulation factor IX (FIXa) (UniProt P00740 47-461, limits assumed); assay: cell-based or functional assay
Chain of activated blood coagulation factor IX (FIXa) (P00740 47-461 limits assumed): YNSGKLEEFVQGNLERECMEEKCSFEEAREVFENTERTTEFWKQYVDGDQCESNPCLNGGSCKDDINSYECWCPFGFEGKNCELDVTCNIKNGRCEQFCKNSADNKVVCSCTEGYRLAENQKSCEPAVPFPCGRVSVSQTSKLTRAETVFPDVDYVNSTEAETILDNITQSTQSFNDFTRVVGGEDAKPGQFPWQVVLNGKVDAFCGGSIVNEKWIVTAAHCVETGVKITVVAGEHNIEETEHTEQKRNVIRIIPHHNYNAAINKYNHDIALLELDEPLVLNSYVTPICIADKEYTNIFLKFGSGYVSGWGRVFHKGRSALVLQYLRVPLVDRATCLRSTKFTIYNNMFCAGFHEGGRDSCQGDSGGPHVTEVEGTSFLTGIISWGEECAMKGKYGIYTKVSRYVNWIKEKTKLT

[2] = biological target: blood coagulation factor X (FX) (UniProt P00742 41-488, limits assumed); assay: cell-based or functional assay
Chain of blood coagulation factor X (FX) (P00742 41-488 limits assumed): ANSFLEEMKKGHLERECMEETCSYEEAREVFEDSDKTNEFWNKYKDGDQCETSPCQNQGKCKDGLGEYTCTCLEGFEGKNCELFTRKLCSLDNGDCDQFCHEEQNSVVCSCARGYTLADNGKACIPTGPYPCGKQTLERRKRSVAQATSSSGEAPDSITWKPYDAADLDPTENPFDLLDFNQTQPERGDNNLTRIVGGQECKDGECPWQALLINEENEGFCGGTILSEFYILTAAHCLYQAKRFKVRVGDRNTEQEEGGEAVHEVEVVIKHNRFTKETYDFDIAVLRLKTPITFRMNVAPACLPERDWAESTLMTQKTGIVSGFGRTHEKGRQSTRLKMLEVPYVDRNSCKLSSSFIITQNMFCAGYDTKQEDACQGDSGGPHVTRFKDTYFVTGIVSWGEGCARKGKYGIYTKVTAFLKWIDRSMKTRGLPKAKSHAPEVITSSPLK

Row | Binder | biological activity relative to the Emicizumab standard solution (chromogenic assay: FXa produced in the presence of FIXa, FX and phospholipid) [1] [%] | biological activity relative to the Emicizumab standard solution (chromogenic assay: FXa produced in the presence of FIXa, FX and phospholipid) [2] [%]
1 | B1 | 18 | 18
2 | B2 | 8 | 8
